Test [1] has as its target T1, hPD-L1 (Acro Biosystems, PD1-H5229) (human, UniProt Q9NZQ7 19-238).
T1 construct: also called human PD-L1; hPD-L1 protein
Nature of the test: ELISA, hPD-L1 coated, anti-human Fc-HRP, OD450. A general note: An ELISA detects its analyte on a solid surface through an enzyme-linked reagent.

Test [2] concerns the target T2, Human IL-1β protein (Sino Biological, Cat #10139) (human, UniProt P01584 117-269).
T2 construct: also called hIL-1β
The experiment in a line: ELISA, hIL-1β protein coated, anti-human Fc-HRP, OD450.

The target of test [3] is T3, human PD-L1 expressed on cells (human, UniProt Q9NZQ7 19-290). Nature of the test: cell-based or functional assay.
Test [4] deals with T2, Human IL-1β protein (Sino Biological, …). Nature of the test: cell-based or functional assay.
Test [5] addresses T3, human PD-L1 expressed on cells. The experiment in a line: flow cytometry on 293T-PD-L1-CD3L cells, Mean FITC-A as printed. On the technique in general: In flow cytometry, cells or beads pass a laser one at a time.
The target in test [6] is T1, hPD-L1 (Acro Biosystems, PD1-H5229). The experiment in a line: ELISA on human PD-L1, OD450.
A further test has as its target human CD47 (human, UniProt Q08722 19-139, limits assumed). Nature of the test: ELISA on human CD47, OD450.
Test [7] has as its target T1, hPD-L1 (Acro Biosystems, PD1-H5229). Nature of the test: ELISA, hPD-L1 coated, anti-human Fc-HRP, OD450. The source holds these as a separate data set.
Test [8] has as its target T3, human PD-L1 expressed on cells. The experiment in a line: flow cytometry on NCI-H292 cells, Mean FITC-A.
Test [9] has the same target. The experiment in a line: flow cytometry on PHA-activated human PBMC (T cells), Mean APC-A.
The target is the same in test [10]. Nature of the test: flow cytometry on NCI-H460 cells, Mean FITC-A.
In another test the target is cynoPD-L1-Fc (cynomolgus, UniProt G7PSE7 19-238, Fc carrier is left out of the letters.). Nature of the test: competition ELISA, cynoPD-L1-Fc coated; blocked ligand cyno PD-1-Fc-biotin, OD450.
Sequence of cynoPD-L1-Fc (G7PSE7 entry or part of it limits assumed): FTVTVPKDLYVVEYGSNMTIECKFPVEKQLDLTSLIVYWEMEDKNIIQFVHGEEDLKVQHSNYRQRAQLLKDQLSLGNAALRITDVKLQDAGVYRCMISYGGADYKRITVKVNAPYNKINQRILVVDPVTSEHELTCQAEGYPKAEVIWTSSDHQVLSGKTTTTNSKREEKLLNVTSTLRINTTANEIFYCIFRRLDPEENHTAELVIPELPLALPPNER
Test [11] concerns the target cynomolgus PD-L1 on activated cynomolgus T cells (cynomolgus, UniProt G7PSE7 19-290). Nature of the test: flow cytometry on PHA-activated cynomolgus PBMC (T cells), Mean APC-A.
In test [12] the target is T3, human PD-L1 expressed on cells. The experiment in a line: flow cytometry on EMT6/hPD-L1 cells, Mean FITC-A.
For another test, the target named is T4, human PD-L1-Fc (human, UniProt Q9NZQ7 19-239).
T4 construct: also called hPD-L1-Fc; human PD-L1-Fc (Sino Biological, 70110-D02H); not shown: Fc part
Nature of the test: competition ELISA, hPD-L1-Fc coated; blocked ligand hPD-1-Fc-biotin, OD450.

The target in test [13] is T3, human PD-L1 expressed on cells. Nature of the test: flow cytometry on 293T-PD-L1-CD3L cells, PE anti-human IgG, Mean PE-A.
Test [14] shares this target. Nature of the test: cell-based or functional assay. The source holds these as a separate data set.
Test [15] has the same target. Nature of the test: flow cytometry on MC38/hPD-L1 cells, Mean FITC-A.
In another test the target is T5, human TGFβ1 (human, UniProt P01137 279-390).
T5 construct: also called hTGFβ-1; TGFb1
T5 sequence (P01137 279-390 limits assumed): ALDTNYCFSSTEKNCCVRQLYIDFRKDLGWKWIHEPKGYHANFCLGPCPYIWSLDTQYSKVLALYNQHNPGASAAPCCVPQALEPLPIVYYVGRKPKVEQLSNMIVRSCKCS
Nature of the test: bridging ELISA, hTGFβ-1 coated, detected with hPD-L1-biotin and streptavidin-HRP.

Test [16] concerns the target T3, human PD-L1 expressed on cells. The experiment in a line: cell-based or functional assay. This is another data set of the same source.
Test [17] has the same target. The experiment in a line: flow cytometry on activated human T cells, Mean FITC-A.

Numbering of substitutions follows the chain as printed.

Sequence of human CD47 (Q08722 19-139 limits assumed): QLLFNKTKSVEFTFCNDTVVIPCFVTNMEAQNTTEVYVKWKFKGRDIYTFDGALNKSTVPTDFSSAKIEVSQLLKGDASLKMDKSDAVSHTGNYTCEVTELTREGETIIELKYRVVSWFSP
Sequence of cynomolgus PD-L1 on activated cynomolgus T cells (G7PSE7 entry or part of it limits assumed): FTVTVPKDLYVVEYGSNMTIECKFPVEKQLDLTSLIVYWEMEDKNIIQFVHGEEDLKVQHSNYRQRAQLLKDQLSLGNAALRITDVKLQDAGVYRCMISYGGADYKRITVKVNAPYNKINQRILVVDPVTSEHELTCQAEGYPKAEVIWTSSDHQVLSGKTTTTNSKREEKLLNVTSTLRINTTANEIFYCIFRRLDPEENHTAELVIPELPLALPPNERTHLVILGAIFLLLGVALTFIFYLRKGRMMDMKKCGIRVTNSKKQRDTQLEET

B1: IgG-scFv-XOMA052-AM4B6 (bispecific antibody)
heavy: QVQLQESGPGLVKPSQTLSLTCSFSGFSLSTSGMGVGWIRQPSGKGLEWLAHIWWDGDESYNPSLKSRLTISKDTSKNQVSLKITSVTAADTAVYFCARNRYDPPWFVDWGQGTLVTVSSASTKGPSVFPLAPSSKSTSGGTAALGCLVKDYFPEPVTVSWNSGALTSGVHTFPAVLQSSGLYSLSSVVTVPSSSLGTQTYICNVNHKPSNTKVDKKVEPKSCDKTHTCPPCPAPEFEGGPSVFLFPPKPKDTLMISRTPEVTCVVVDVSHEDPEVKFNWYVDGVEVHNAKTKPREEQYNSTYRVVSVLTVLHQDWLNGKEYKCKVSNKALPASIEKTISKAKGQPREPQVYTLPPSRDELTKNQVSLTCLVKGFYPSDIAVEWESNGQPENNYKTTPPVLDSDGSFFLYSKLTVDKSRWQQGNVFSCSVMHEALHNHYTQKSLSLSPGAGGGGSGGGGSGGGGSGGGGSQVQLVQSGAEVKKPGASVKVSCKASGYVFTDYYMNWVRQAPGQSLEWMGDINPNNAETLYNHKFKGRVTVTVDKSISTAYMELSRLRSDDTAVYYCVKWGDGPFAYWGQGTLVTVSSGGGGSGGGGSGGGGSGGGGSDIQMTQSPSSLSASVGDRVTITCKASQNVGAAVAWYQQKPGKAPKLLIYSVSDRYTGVPSRFSGSGSGTDFTLTISSLQPEDIATYYCQQYSNYPTFGQGTKLTVL
light: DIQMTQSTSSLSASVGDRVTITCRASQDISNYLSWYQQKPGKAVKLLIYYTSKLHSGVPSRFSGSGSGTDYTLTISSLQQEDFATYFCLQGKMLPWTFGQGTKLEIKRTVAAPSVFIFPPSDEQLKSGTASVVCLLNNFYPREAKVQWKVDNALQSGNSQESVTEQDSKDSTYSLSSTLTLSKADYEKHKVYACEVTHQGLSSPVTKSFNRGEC
notes: Anti-IL-1β IgG (Gevokizumab) with the AM4B6 scFv on the C-terminus of the heavy chain
The term EC50 denotes the concentration giving half of the maximal effect. As for B1, the EC50 in test [1] is 0.0349 nM; in test [2] it was 0.0155 nM; in test [5], 1.4 nM. The “IC50 (so in the source), luminescence (axis printed OD450), 293T-PD-L1-CD3L cells with Jurkat-NFAT-Luc-PD1 cells” value in test [3] came out at 1.49 nM. Besides, the “IC50, IL-6 release (pg/mL) of HDF cells stimulated with human IL-1β” value in test [4] was 0.0141 nM.

B2: AM4B6-hIgG1-SIRPα (other)
heavy: QVQLVQSGAEVKKPGASVKVSCKASGYVFTDYYMNWVRQAPGQSLEWMGDINPNNAETLYNHKFKGRVTVTVDKSISTAYMELSRLRSDDTAVYYCVKWGDGPFAYWGQGTLVTVSSASTKGPSVFPLAPSSKSTSGGTAALGCLVKDYFPEPVTVSWNSGALTSGVHTFPAVLQSSGLYSLSSVVTVPSSSLGTQTYICNVNHKPSNTKVDKKVEPKSCDKTHTCPPCPAPEFEGGPSVFLFPPKPKDTLMISRTPEVTCVVVDVSHEDPEVKFNWYVDGVEVHNAKTKPREEQYNSTYRVVSVLTVLHQDWLNGKEYKCKVSNKALPASIEKTISKAKGQPREPQVYTLPPSRDELTKNQVSLTCLVKGFYPSDIAVEWESNGQPENNYKTTPPVLDSDGSFFLYSKLTVDKSRWQQGNVFSCSVMHEALHNHYTQKSLSLSPGAGGGGSGGGGSGGGGSGGGGSGEEELQIIQPDKSVLVAAGETATLRCTITSLFPVGPIQWFRGAGPGRVLIYNQRQGPFPRVTTVSDTTKRNNMDFSIRIGNITPADAGTYYCIKFRKGSPDDVEFKSGAGTELSVRAKPS
light: DIQMTQSPSSLSASVGDRVTITCKASQNVGAAVAWYQQKPGKAPKLLIYSVSDRYTGVPSRFSGSGSGTDFTLTISSLQPEDIATYYCQQYSNYPTFGQGTKLEIKRTVAAPSVFIFPPSDEQLKSGTASVVCLLNNFYPREAKVQWKVDNALQSGNSQESVTEQDSKDSTYSLSSTLTLSKADYEKHKVYACEVTHQGLSSPVTKSFNRGEC
notes: Symmetrical bifunctional antibody against PD-L1 and CD47 (SIRPα_CV1 on the heavy chain)
Take B2: the concentration giving a half-maximal response (EC50) in test [6] came out at 0.154 nM; in the test with human CD47, 0.24 nM.

B3: AM4B6-hIgG1-SIRPα (KIH) (other)
heavy 1: B2 heavy with S354C, T366W
heavy 2: QVQLVQSGAEVKKPGASVKVSCKASGYVFTDYYMNWVRQAPGQSLEWMGDINPNNAETLYNHKFKGRVTVTVDKSISTAYMELSRLRSDDTAVYYCVKWGDGPFAYWGQGTLVTVSSASTKGPSVFPLAPSSKSTSGGTAALGCLVKDYFPEPVTVSWNSGALTSGVHTFPAVLQSSGLYSLSSVVTVPSSSLGTQTYICNVNHKPSNTKVDKKVEPKSCDKTHTCPPCPAPEFEGGPSVFLFPPKPKDTLMISRTPEVTCVVVDVSHEDPEVKFNWYVDGVEVHNAKTKPREEQYNSTYRVVSVLTVLHQDWLNGKEYKCKVSNKALPASIEKTISKAKGQPREPQVCTLPPSRDELTKNQVSLSCAVKGFYPSDIAVEWESNGQPENNYKTTPPVLDSDGSFFLVSKLTVDKSRWQQGNVFSCSVMHEALHNHYTQKSLSLSPGK
light: B2 light
notes: Asymmetric (knob into hole) bifunctional antibody
For B3, the concentration giving a half-maximal response (EC50) in [6] is 0.0853 nM; with human CD47, 0.167 nM.

B4: AM4B6-hIgG1 monoclonal antibody (antibody, V domains shown)
VH: QVQLVQSGAEVKKPGASVKVSCKASGYVFTDYYMNWVRQAPGQSLEWMGDINPNNAETLYNHKFKGRVTVTVDKSISTAYMELSRLRSDDTAVYYCVKWGDGPFAYWGQGTLVTVSS
VL: DIQMTQSPSSLSASVGDRVTITCKASQNVGAAVAWYQQKPGKAPKLLIYSVSDRYTGVPSRFSGSGSGTDFTLTISSLQPEDIATYYCQQYSNYPTFGQGTKLEIK
notes: hIgG1; also called AM4B6 mAb; AM4B6 monoclonal antibody
Usually IC50 stands for the midpoint of a concentration-inhibition curve. Turning to B4, the EC50 in [1] stood at 0.0114 nM; in [7], 0.0313 nM; in [8] it was 0.199 nM; in test [9] it was 0.267 nM; in test [10] it was 0.222 nM; in [11] it was 0.684 nM. In addition, the EC50 is 0.24 nM in test [12]; 0.903 nM in test [13]; 0.299 nM in test [15]; 0.774 nM in test [5]; 0.16 nM in test [17]. The IC50 with cynoPD-L1-Fc worked out at 2.06 nM; with human PD-L1-Fc it was 2.28 nM. Also, the “IC50 (so in the source), luminescence (axis printed OD450), 293T-PD-L1-CD3L cells with Jurkat-NFAT-Luc-PD1 cells” value in test [3] turned out to be 0.994 nM. Also, the “IC50 (so in the source), NFAT-luciferase luminescence, 293T-PD-L1-CD3L cells with Jurkat-NFAT-Luc-PD1 cells” value in test [14] turned out to be 1.08 nM. In addition, the binding result in the test with human TGFβ1 is “no binding (tested: 100 nM)”. Besides, in test [16], the “IC50 (so in the source), NFAT-luciferase luminescence, hPD-L1/hPD-1 reporter cell assay” value is 0.714 nM.
